Data as given in the supplement of paper PMC9112550, “Optimization of the antimicrobial peptide Bac7 by deep mutational scanning” (BMC Biology, 2022).

Tested on: Escherichia coli TOP10
Test: shrunken log2 fold change of peptide-encoding DNA abundance (4.5 h post-induction vs induction); higher = less antimicrobial activity (less host growth inhibition)
Settings: time post-induction: 4.5 h; library: site-saturation at positions 5, 18, 19, 20
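Also: peptides expressed intracellularly from a pBAD plasmid library in pooled LB shake-flask culture, induced with 0.3% L-arabinose, DNA abundance read by NGS, three biological replicates, DESeq2 with apeglm shrinkage.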

| Sequence | shrunken log2 fold change |
| --- | --- |
| RRIRDRPPRLPRPRPRPDSKPRP | 0.0365 |
| RRIRWRPPRLPRPRPRPTDSPRP | -0.195 |
| RRIRVRPPRLPRPRPRPQGTPRP | -0.289 |
| RRIRTRPPRLPRPRPRPFIKPRP | -0.57 |
| RRIRRRPPRLPRPRPRPIMTPRP | 0.125 |
| RRIRIRPPRLPRPRPRPLKMPRP | -0.245 |
| RRIRQRPPRLPRPRPRPKMAPRP | 0.12 |
| RRIRFRPPRLPRPRPRPYFAPRP | -0.572 |
| RRIRRRPPRLPRPRPRPTKGPRP | 0.244 |
| RRIRMRPPRLPRPRPRPCGRPRP | 1.09 |
| RRIRVRPPRLPRPRPRPETWPRP | 0.0351 |
| RRIRLRPPRLPRPRPRPEPEPRP | 0.551 |
| RRIRPRPPRLPRPRPRPHPSPRP | 0.000134 |
| RRIRIRPPRLPRPRPRPKPQPRP | 0.0958 |
| RRIRSRPPRLPRPRPRPPSPPRP | 0.376 |
| RRIRGRPPRLPRPRPRPSMPPRP | 0.0931 |
| RRIRLRPPRLPRPRPRPAEYPRP | -0.0275 |
| RRIRCRPPRLPRPRPRPEQLPRP | 0.407 |
| RRIRKRPPRLPRPRPRPVDMPRP | -0.122 |
| RRIRCRPPRLPRPRPRPNMNPRP | -0.88 |
| RRIRQRPPRLPRPRPRPCCYPRP | -0.0451 |
| RRIRCRPPRLPRPRPRPNTMPRP | -0.682 |
| RRIRTRPPRLPRPRPRPFFAPRP | 0.223 |
| RRIRDRPPRLPRPRPRPIAGPRP | -0.0166 |
| RRIRQRPPRLPRPRPRPQILPRP | -0.132 |

| Sequence | shrunken log2 fold change |
| --- | --- |
| RRIRYRPPRLPRPRPRPKSYPRP | -0.101 |
| RRIRGRPPRLPRPRPRPDKWPRP | 0.243 |
| RRIRPRPPRLPRPRPRPGHPPRP | -0.12 |
| RRIRHRPPRLPRPRPRPPPFPRP | 0.0505 |
| RRIRIRPPRLPRPRPRPCCIPRP | -2.25 |
| RRIRPRPPRLPRPRPRPIRAPRP | -0.106 |
| RRIRTRPPRLPRPRPRPNTTPRP | -0.164 |
| RRIRGRPPRLPRPRPRPCEFPRP | 0.0669 |
| RRIRPRPPRLPRPRPRPSTAPRP | -0.105 |
| RRIRWRPPRLPRPRPRPPFVPRP | 0.171 |
| RRIRKRPPRLPRPRPRPQSRPRP | 0.0866 |
| RRIRARPPRLPRPRPRPRIPPRP | 0.0568 |
| RRIRMRPPRLPRPRPRPAHPPRP | 0.296 |
| RRIRERPPRLPRPRPRPKHIPRP | -0.766 |
| RRIRKRPPRLPRPRPRPNIMPRP | -0.189 |
| RRIRRRPPRLPRPRPRPIRQPRP | 0.00198 |
| RRIRLRPPRLPRPRPRPGEQPRP | 0.0657 |
| RRIRPRPPRLPRPRPRPMEMPRP | -0.0174 |
| RRIRMRPPRLPRPRPRPNASPRP | 0.0546 |
| RRIRYRPPRLPRPRPRPFTEPRP | -0.955 |
| RRIRIRPPRLPRPRPRPNKKPRP | -0.0918 |
| RRIRRRPPRLPRPRPRPQPRPRP | 0.5 |
| RRIRLRPPRLPRPRPRPADMPRP | -0.445 |
| RRIRTRPPRLPRPRPRPNWHPRP | -0.0773 |
| RRIRYRPPRLPRPRPRPHYTPRP | -0.936 |

| Sequence | shrunken log2 fold change |
| --- | --- |
| RRIRDRPPRLPRPRPRPSCLPRP | -0.0009 |
| RRIRARPPRLPRPRPRPTFLPRP | 0.113 |
| RRIRNRPPRLPRPRPRPSAFPRP | -0.249 |
| RRIRNRPPRLPRPRPRPCKLPRP | -0.362 |
| RRIRKRPPRLPRPRPRPWARPRP | 0.704 |
| RRIRRRPPRLPRPRPRPMYRPRP | 0.0278 |
| RRIRWRPPRLPRPRPRPPMEPRP | -0.131 |
| RRIRRRPPRLPRPRPRPGQFPRP | 0.0178 |
| RRIRARPPRLPRPRPRPDMFPRP | 0.0745 |
| RRIRGRPPRLPRPRPRPWLCPRP | 0.266 |
| RRIRERPPRLPRPRPRPCWYPRP | -0.0102 |
| RRIRERPPRLPRPRPRPAYSPRP | -0.0646 |
| RRIRDRPPRLPRPRPRPRQDPRP | 0.367 |
| RRIRGRPPRLPRPRPRPLWDPRP | 0.537 |
| RRIRYRPPRLPRPRPRPFEIPRP | -0.17 |
| RRIRIRPPRLPRPRPRPIGQPRP | -0.0062 |
| RRIRLRPPRLPRPRPRPIRRPRP | 0.0431 |
| RRIRIRPPRLPRPRPRPGTMPRP | -0.112 |
| RRIRSRPPRLPRPRPRPCMRPRP | 0.0526 |
| RRIRKRPPRLPRPRPRPAGGPRP | 0.435 |
| RRIRERPPRLPRPRPRPKMPPRP | -0.0401 |
| RRIRLRPPRLPRPRPRPTSMPRP | -0.154 |
| RRIRKRPPRLPRPRPRPLHPPRP | 0.158 |
| RRIRLRPPRLPRPRPRPIHWPRP | 0.143 |
| RRIRTRPPRLPRPRPRPEYIPRP | 0.00825 |

| Sequence | shrunken log2 fold change |
| --- | --- |
| RRIRDRPPRLPRPRPRPTKDPRP | 0.0518 |
| RRIRERPPRLPRPRPRPTCHPRP | -0.186 |
| RRIRARPPRLPRPRPRPWHKPRP | 0.0323 |
| RRIRFRPPRLPRPRPRPEVGPRP | 0.296 |
| RRIRERPPRLPRPRPRPQSNPRP | -0.172 |
| RRIRPRPPRLPRPRPRPCGMPRP | 0.0189 |
| RRIRWRPPRLPRPRPRPEPKPRP | 0.393 |
| RRIRDRPPRLPRPRPRPIGIPRP | 0.00854 |
| RRIRPRPPRLPRPRPRPFYTPRP | -0.429 |
| RRIRFRPPRLPRPRPRPNSNPRP | -0.996 |
| RRIRWRPPRLPRPRPRPRYQPRP | -0.188 |
| RRIRLRPPRLPRPRPRPSMLPRP | -0.965 |
| RRIRHRPPRLPRPRPRPPKTPRP | 0.177 |
| RRIRSRPPRLPRPRPRPMGKPRP | -0.00865 |
| RRIRDRPPRLPRPRPRPMFSPRP | -0.142 |
| RRIRYRPPRLPRPRPRPFGEPRP | -0.00973 |
| RRIRKRPPRLPRPRPRPILLPRP | -0.313 |
| RRIRGRPPRLPRPRPRPEEQPRP | -0.00213 |
| RRIRMRPPRLPRPRPRPHQNPRP | 0.114 |
| RRIRMRPPRLPRPRPRPMGRPRP | -0.0209 |
| RRIRQRPPRLPRPRPRPMTSPRP | -0.000946 |
| RRIRRRPPRLPRPRPRPKGIPRP | 0.268 |
| RRIRSRPPRLPRPRPRPYNCPRP | -0.171 |
| RRIRMRPPRLPRPRPRPHAPPRP | 0.469 |
| RRIRARPPRLPRPRPRPAHHPRP | 0.123 |

| Sequence | shrunken log2 fold change |
| --- | --- |
| RRIRCRPPRLPRPRPRPKPAPRP | 0.288 |
| RRIRIRPPRLPRPRPRPMNNPRP | -0.465 |
| RRIRRRPPRLPRPRPRPQTMPRP | 0.0791 |
| RRIRNRPPRLPRPRPRPIASPRP | 0.0215 |
| RRIRKRPPRLPRPRPRPRSYPRP | -0.134 |
| RRIRMRPPRLPRPRPRPAPQPRP | 1.77 |
| RRIRMRPPRLPRPRPRPQKDPRP | 0.0308 |
| RRIRWRPPRLPRPRPRPCVDPRP | 0.0275 |
| RRIRDRPPRLPRPRPRPRNLPRP | -0.0438 |
| RRIRGRPPRLPRPRPRPDKYPRP | -0.136 |
| RRIRWRPPRLPRPRPRPFMVPRP | -0.371 |
| RRIRRRPPRLPRPRPRPGKNPRP | 0.16 |
| RRIRPRPPRLPRPRPRPVCRPRP | -0.0794 |
| RRIRMRPPRLPRPRPRPSFQPRP | -0.283 |
| RRIRRRPPRLPRPRPRPSGGPRP | 0.318 |
| RRIRKRPPRLPRPRPRPKATPRP | 0.0944 |
| RRIRQRPPRLPRPRPRPPICPRP | 0.0388 |
| RRIRERPPRLPRPRPRPWIGPRP | 0.155 |
| RRIRLRPPRLPRPRPRPWPDPRP | -0.148 |
| RRIRIRPPRLPRPRPRPHIAPRP | -0.957 |
| RRIRKRPPRLPRPRPRPEVPPRP | 0.539 |
| RRIRIRPPRLPRPRPRPQHFPRP | -0.109 |
| RRIRDRPPRLPRPRPRPCKWPRP | -0.203 |
| RRIRSRPPRLPRPRPRPEFHPRP | -0.162 |
| RRIRRRPPRLPRPRPRPCRLPRP | 0.144 |

| Sequence | shrunken log2 fold change |
| --- | --- |
| RRIRIRPPRLPRPRPRPFSTPRP | -0.38 |
| RRIRTRPPRLPRPRPRPHTFPRP | -0.431 |
| RRIRIRPPRLPRPRPRPRIIPRP | -0.199 |
| RRIRIRPPRLPRPRPRPIGCPRP | -0.00783 |
| RRIRDRPPRLPRPRPRPGYPPRP | 0.0463 |
| RRIRLRPPRLPRPRPRPDMAPRP | 0.0097 |
| RRIRMRPPRLPRPRPRPKNFPRP | -0.15 |
| RRIRTRPPRLPRPRPRPKNWPRP | 0.183 |
| RRIRLRPPRLPRPRPRPKEVPRP | -0.147 |
| RRIRMRPPRLPRPRPRPGVTPRP | 0.285 |
| RRIRPRPPRLPRPRPRPVHRPRP | 0.0193 |
| RRIRRRPPRLPRPRPRPYACPRP | -0.207 |
| RRIRHRPPRLPRPRPRPAPEPRP | 0.0106 |
| RRIRVRPPRLPRPRPRPRLEPRP | 0.138 |
| RRIRKRPPRLPRPRPRPERMPRP | 0.0818 |
| RRIRHRPPRLPRPRPRPNIPPRP | -0.234 |
| RRIRHRPPRLPRPRPRPLKHPRP | -0.869 |
| RRIRQRPPRLPRPRPRPGEEPRP | 0.0331 |
| RRIRYRPPRLPRPRPRPTHIPRP | -1.04 |
| RRIRLRPPRLPRPRPRPVEPPRP | 0.188 |
| RRIRNRPPRLPRPRPRPGDPPRP | 0.306 |
| RRIRNRPPRLPRPRPRPAFKPRP | -0.0432 |
| RRIRGRPPRLPRPRPRPICGPRP | 0.728 |
| RRIRERPPRLPRPRPRPQCDPRP | -0.162 |
| RRIRIRPPRLPRPRPRPVWHPRP | -0.413 |
